Reference: US20190119318A1
Values joined by “and” are separate entries in the source; they are usually repeats but may differ in a detail not shown here. Equal entries are not always repeated.

How the values were obtained:
[1] = biological target: human polyclonal IgG (Gammanorm) (human); assay: column DBC; base A65a; ligand 6.6 mg/ml
[2] = biological target: human polyclonal IgG (Gammanorm) (human); assay: column DBC; base A65a; ligand 13.1 mg/ml
[3] = biological target: human polyclonal IgG (Gammanorm) (human); assay: column DBC; base A65b; ligand 8.8 mg/ml
[4] = biological target: human polyclonal IgG (Gammanorm) (human); assay: column DBC; base A40; ligand 13.15 mg/ml
[5] = biological target: human polyclonal IgG (Gammanorm) (human); assay: column DBC; base A20; ligand 10.6 mg/ml
[6] = biological target: human polyclonal IgG (Gammanorm) (human); assay: column DBC; base C4; ligand […]
[7] = biological target: human polyclonal IgG (Gammanorm) (human); assay: column DBC; base A38; ligand 7.5 mg/ml
[8] = biological target: human polyclonal IgG (Gammanorm) (human); assay: column DBC; ligand 13 mg/ml; before incubation in 1 M NaOH
[9] = biological target: human polyclonal IgG (Gammanorm) (human); assay: column DBC; base A62a; ligand 6.4 mg/ml
[10] = biological target: human polyclonal IgG (Gammanorm) (human); assay: column DBC; ligand 16 mg/ml; before incubation in 1 M NaOH
[11] = biological target: human polyclonal IgG (Gammanorm) (human); assay: column DBC; base A62a; ligand 14.8 mg/ml
[12] = biological target: human polyclonal IgG (Gammanorm) (human); assay: column DBC; ligand 20 mg/ml; before incubation in 1 M NaOH
[13] = biological target: human polyclonal IgG (Gammanorm) (human); assay: column DBC; base A32; ligand 13.3 mg/ml
[14] = biological target: human polyclonal IgG (Gammanorm) (human); assay: column DBC; base A62a; ligand 9.7 mg/ml
[15] = biological target: human polyclonal IgG (Gammanorm) (human); assay: SPR; after 100 CIP cycles 1 M NaOH
[16] = biological target: human polyclonal IgG (Gammanorm) (human); assay: column DBC; base I1; ligand 6.1 mg/ml
[17] = biological target: human polyclonal IgG (Gammanorm) (human); assay: column DBC; base C2; ligand […]
[18] = biological target: human polyclonal IgG (Gammanorm) (human); assay: SPR; vs reference Zvar4; 0.5 M NaOH
[19] = biological target: human polyclonal IgG (Gammanorm) (human); assay: column DBC; base H40; ligand […]
[20] = biological target: human polyclonal IgG (Gammanorm) (human); assay: column DBC; base A40; ligand 13.2 mg/ml
[21] = biological target: human polyclonal IgG (Gammanorm) (human); assay: column DBC; base A32; ligand […]
[22] = biological target: human polyclonal IgG (Gammanorm) (human); assay: SPR; after 200 CIP cycles 0.5 M NaOH
[23] = biological target: human polyclonal IgG (Gammanorm) (human); assay: column DBC; base A65a; ligand 13.6 mg/ml
[24] = biological target: human polyclonal IgG (Gammanorm) (human); assay: column DBC; base A18; ligand 13.4 mg/ml
[25] = biological target: human polyclonal IgG (Gammanorm) (human); assay: SPR; after 300 CIP cycles 0.5 M NaOH
[26] = biological target: human polyclonal IgG (Gammanorm) (human); assay: column DBC; base A27; ligand […]
[27] = biological target: human polyclonal IgG (Gammanorm) (human); assay: column DBC; base A43; ligand 10.51 mg/ml
[28] = biological target: human polyclonal IgG (Gammanorm) (human); assay: column DBC; base A65a; ligand 6.1 mg/ml
[29] = biological target: human polyclonal IgG (Gammanorm) (human); assay: column DBC; base A63a; ligand 6.1 mg/ml
[30] = biological target: human polyclonal IgG (Gammanorm) (human); assay: column DBC; base C4; ligand 10.1 mg/ml
[31] = biological target: human polyclonal IgG (Gammanorm) (human); assay: column DBC; base A29; ligand 7.3 mg/ml
[32] = biological target: human polyclonal IgG (Gammanorm) (human); assay: column DBC; base A39; ligand 6.96 mg/ml
[33] = biological target: human polyclonal IgG (Gammanorm) (human); assay: column DBC; base C1; ligand […]
[34] = biological target: human polyclonal IgG (Gammanorm) (human); assay: column DBC; base A28; ligand 7.9 mg/ml
[35] = biological target: human polyclonal IgG (Gammanorm) (human); assay: column DBC; base C1; ligand 10.8 mg/ml
[36] = biological target: human polyclonal IgG (Gammanorm) (human); assay: column DBC; base A39; ligand 10.5 mg/ml
[37] = biological target: human polyclonal IgG (Gammanorm) (human); assay: column DBC; base A38; ligand 7.45 mg/ml
[38] = biological target: human polyclonal IgG (Gammanorm) (human); assay: SPR; after 100 CIP cycles 0.5 M NaOH
[39] = biological target: human polyclonal IgG (Gammanorm) (human); assay: column DBC; base A40; ligand 6.1 mg/ml
[40] = biological target: human polyclonal IgG (Gammanorm) (human); assay: column DBC; base B5; ligand 6.3 mg/ml
[41] = biological target: human polyclonal IgG (Gammanorm) (human); assay: column DBC; base A63a; ligand 6.6 mg/ml

Zvar(Q9A,N11E,Q40V,A42K,N43A,L44I)4 (designed binder)
Qb10% 2.4 min [1]: 42 mg/mL | Qb10% 6 min [1]: 47 mg/mL | Qb10% 2.4 min [2]: 56 mg/mL | Qb10% 6 min [2]: 64 mg/mL | Qb10% 2.4 min [3]: 49 mg/mL | Qb10% 6 min [3]: 56 mg/mL | Qb10% 2.4 min [4]: 56.9 mg/mL | Qb10% 6 min [4]: 71.1 mg/mL | Qb10% 2.4 min [5]: 50.7 mg/mL and 51 mg/mL | Qb10% 6 min [5]: 70.1 mg/mL and 70 mg/mL | Qb10% 2.4 min [6]: 59 mg/mL | Qb10% 6 min [6]: 67 mg/mL | Qb10% 2.4 min [7]: 44 mg/mL | Qb10% 6 min [7]: 58 mg/mL | Qb10%, 6 min, before incubation [8]: 79 mg/mL | Qb10% 2.4 min [9]: 43 mg/mL | Qb10% 6 min [9]: 45 mg/mL | Qb10%, 6 min, before incubation [10]: 73 mg/mL | Qb10% 2.4 min [11]: 55 mg/mL | Qb10% 6 min [11]: 62 mg/mL | Qb10%, 6 min, before incubation [12]: 73 mg/mL | Qb10% 2.4 min [13]: 37 mg/mL | Qb10% 6 min [13]: 66 mg/mL | Qb10% 2.4 min [14]: 48 mg/mL | Qb10% 6 min [14]: 60 mg/mL | remaining capacity 100 cycles [15]: 56% | Qb10% 2.4 min [16]: 45 mg/mL | Qb10% 6 min [16]: 51 mg/mL | Qb10% 2.4 min [17]: 39 mg/mL | Qb10% 6 min [17]: 46 mg/mL | capacity relative to ref. 100 cycles [18]: 1.34 | capacity relative to ref. 200 cycles [18]: 2.06 | capacity relative to ref. 300 cycles [18]: 3.56 | Qb10% 2.4 min [19]: 47 mg/mL | Qb10% 6 min [19]: 52 mg/mL | Qb10% 2.4 min [20]: 57 mg/mL | Qb10% 6 min [20]: 71 mg/mL | Qb10% 2.4 min [21]: 40 mg/mL | Qb10% 6 min [21]: 57 mg/mL | remaining capacity 200 cycles [22]: 74% | Qb10% 2.4 min [23]: 52 mg/mL | Qb10% 6 min [23]: 61 mg/mL | Qb10% 6 min [24]: 63 mg/mL | remaining capacity 300 cycles [25]: 57% | Qb10% 2.4 min [26]: 24.8 mg/mL | Qb10% 6 min [26]: 55.6 mg/mL | Qb10% 2.4 min [27]: 31.8 mg/mL | Qb10% 6 min [27]: 58 mg/mL | Qb10% 2.4 min [28]: 40 mg/mL | Qb10% 6 min [28]: 44 mg/mL | Qb10% 2.4 min [29]: 39 mg/mL | Qb10% 6 min [29]: 44 mg/mL | Qb10% 2.4 min [30]: 55 mg/mL | Qb10% 6 min [30]: 63 mg/mL | Qb10% 2.4 min [31]: 36.3 mg/mL | Qb10% 6 min [31]: 51.8 mg/mL | Qb10% 2.4 min [32]: 41.9 mg/mL | Qb10% 6 min [32]: 54.7 mg/mL | Qb10% 2.4 min [33]: 38 mg/mL | Qb10% 6 min [33]: 47 mg/mL | Qb10% 2.4 min [34]: 42.4 mg/mL and 42 mg/mL | Qb10% 6 min [34]: 58.2 mg/mL and 58 mg/mL | Qb10% 2.4 min [35]: 43 mg/mL | Qb10% 6 min [35]: 60 mg/mL | Qb10% 2.4 min [36]: 44 mg/mL | Qb10% 6 min [36]: 65 mg/mL | Qb10% 2.4 min [37]: 44.4 mg/mL | Qb10% 6 min [37]: 58.2 mg/mL | remaining capacity 100 cycles [38]: 90% | Qb10% 2.4 min [39]: 49 mg/mL | Qb10% 6 min [39]: 59 mg/mL | Qb10% 2.4 min [40]: 32 mg/mL | Qb10% 6 min [40]: 38 mg/mL | Qb10% 2.4 min [41]: 40 mg/mL | Qb10% 6 min [41]: 44 mg/mL
